How the values were obtained:
CKAP4_(127–360) [1] = target: T1, CKAP4_(127–360) (UniProt Q07065 127-360); test: SPR; CKAP4 deletion mutant amine-coupled on Fc2 of a CM5 chip (352, 585, 1914 RU), Fc1 blank reference; multi-cycle kinetics with as-APF 2.5–40 μM, 30 μl/min, 2 min association, 3 min dissociation; 25 °C, PBS with 0.01% Tween-20; heterogeneous ligand, 1:1 or two-state fit
T1 chain: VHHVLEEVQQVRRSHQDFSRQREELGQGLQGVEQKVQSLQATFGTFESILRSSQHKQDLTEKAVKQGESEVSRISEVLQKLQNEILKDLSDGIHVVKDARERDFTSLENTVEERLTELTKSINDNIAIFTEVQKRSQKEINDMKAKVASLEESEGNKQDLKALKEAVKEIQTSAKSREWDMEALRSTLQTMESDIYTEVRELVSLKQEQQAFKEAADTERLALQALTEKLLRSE

CKAP4_(525–602) = CKAP4_(525–602) (UniProt Q07065); test: as above
CKAP4_(361–524) = CKAP4_(361–524) (UniProt Q07065); test: as above
CKAP4_361–524 = target: T2, CKAP4_361–524 (Homo sapiens, UniProt Q07065); test: SPR binding kinetics, CKAP4_361–524 immobilized on CM5; details: CM5 amine-coupling
T2 construct: amino acids 106–602, 127–360, 361–524, and 525–602 regions were generated by PCR and subcloned into the pET-15b bacterial expression vector; His-tag; made in house; host or cells: E. coli BL21(DE3)pLysS
T2 sequence (Q07065 361-524): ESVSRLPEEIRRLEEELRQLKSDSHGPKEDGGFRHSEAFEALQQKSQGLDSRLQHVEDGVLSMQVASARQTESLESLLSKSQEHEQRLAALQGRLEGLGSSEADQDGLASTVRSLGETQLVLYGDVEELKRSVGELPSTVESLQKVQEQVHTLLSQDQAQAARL
Experimental: (§1) All SPR experiments were performed on a Biacore X-100 instrument (GE Healthcare) with the chip surface at 25 °C using PBS containing 0.01% Tween-20 as running buffer. CKAP4 recombinant proteins were immobilized individually either by Ni^2+/nitrilotriacetic acid (NTA) chelation on Sensor Chip NTA or by amine-coupling on Sensor Chip CM5, on the Fc2 channel. For amine-coupling, the sensor surface on both flow cells was activated for 7 min with a 1:1 mixture of 0.1 M EDC (1-ethyl-3-(3-dimethylaminopropyl) carbodiimide hydrochloride) and 0.1 M NHS (N-hydroxysuccinimide) at a flow rate of 5 μl/min. Immobilization of CKAP4 proteins (on Fc2) was performed in 10 mM sodium acetate buffer, at either pH 4.5, 5.0, or 5.5 based on preliminary pH scouting runs, for optimal binding. […] The data were analyzed using Biacore Evaluation software V2.0. […]
(§2) To assess the as-APF binding activity of the purified CKAP4 deletion mutants, each protein was separately immobilized on a CM5 sensor chip through amine coupling, and SPR responses against APF control peptide and various as-APF concentrations were observed. We used this reverse approach to assess as-APF binding kinetics because the concentration of as-APF synthetic peptide could be calculated more accurately than the purified CKAP4 deletion mutants, which vary in amino acid composition. […]

CKAP4_525–602 = target: T3, CKAP4_525–602 (Homo sapiens, UniProt Q07065); test: SPR binding kinetics, CKAP4_525–602 immobilized on CM5; details: CM5 amine-coupling
T3 construct: amino acids 106–602, 127–360, 361–524, and 525–602 regions were generated by PCR and subcloned into the pET-15b bacterial expression vector; His-tag; made in house; host or cells: E. coli BL21(DE3)pLysS
T3 sequence (Q07065 525-602): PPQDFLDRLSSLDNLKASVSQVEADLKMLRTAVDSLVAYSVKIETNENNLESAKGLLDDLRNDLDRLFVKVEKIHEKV
Experimental: as §1, §2

CKAP4 = test: SPR binding to CKAP4 recombinant proteins (overall statements); details: comparison of as-APF, APF and control peptide
Experimental: as §1, with “binding. Unreacted NHS groups were quenched with a 7 min injection of 1 M ethanolamine pH 8.5. The Fc1 channel was treated similarly but without CKAP4 and served as a reference. Upon stabilization of the baseline signal, multi-cycle kinetics assays were performed with injections of as-APF as analyte at various concentrations (2.5–40 μM) in running buffer at 30 μl/min for 2 min, immediately followed by a 3 min dissociation phase.” for “binding.”

CKAP4_127–360 = target: T4, CKAP4_127–360 (Homo sapiens, UniProt Q07065); test: SPR binding kinetics, CKAP4_127–360 immobilized on CM5; details: CM5 amine-coupling
T4 construct: amino acids 106–602, 127–360, 361–524, and 525–602 regions were generated by PCR and subcloned into the pET-15b bacterial expression vector; His-tag; made in house; host or cells: E. coli BL21(DE3)pLysS
T4 sequence (Q07065 127-360): T1 chain
Experimental: as §1, §2

CKAP4_(127–360) [2] = target: T1, CKAP4_(127–360); test: SPR; heterogeneous ligand fit, KD1

Molecule: as-APF (asialo APF, Galβ1−3GalNAcα-O-…) (peptide)
- KD1 (heterogeneous ligand fit) (CKAP4_(127–360) [1]): 4.61 µM
- KD2 (heterogeneous ligand fit) (CKAP4_(127–360) [1]): 0.66 nM
- stoichiometry N (CKAP4_(127–360) [1]): 7.1
- Kd (CKAP4_(525–602)): 197 µM
- stoichiometry N (CKAP4_(525–602)): 1.5
- Kd (CKAP4_(361–524)): 2.3 µM
- stoichiometry N (CKAP4_(361–524)): 1

Molecule: TVPAAVVVA [APF control peptide]
- specific binding (CKAP4_361–524): no specific binding was detected
- specific binding (CKAP4_525–602): no specific binding was detected
- binding to CKAP4 (in words) (CKAP4): no binding response
- specific binding (CKAP4_127–360): no specific binding was detected

B1: as-APF (asialo APF, Galβ1−3GalNAcα-O-TVPAAVVVA) (peptide)
peptide: TVPAAVVVA
modifications: Galβ1−3GalNAcα-O- disaccharide on the N-terminal threonine
- Kd (CKAP4_(127–360) [2]): 4.6 µM

Reference: PMC5594493, “Antiproliferative factor (APF) binds specifically to sites within the cytoskeleton-associated protein 4 (CKAP4) extracellular domain” (BMC Biochemistry, 2017)
